Each block holds one compound with its values, some of them ahead of it.
What was measured:
[1] = biological target: HcKCR2 WT (K+-selective channelrhodopsin 2 from Hyphochytrium catenoides) (Hyphochytrium catenoides); assay: cryo-EM structure; dark state; protein in MSP1E3D1/SoyPC nanodiscs, 20 mM HEPES-NaOH pH 7.5, 100 mM NaCl; C3 symmetry
[2] = biological target: T1, HcKCR2 (Hyphochytrium catenoides, UniProt Z9CM73ZIR3); assay: cryo-EM structure; assay type: binding; details: dark state, nanodisc, pH 7.5; covalent Schiff base to K233; 6-s-cis conformer
T1 construct: M1-D265; MSP1E3D1/SoyPC nanodisc; residues 2-260 modelled (initiator Met lost); homotrimer
T1 sequence (Z9CM73ZIR3 1-265): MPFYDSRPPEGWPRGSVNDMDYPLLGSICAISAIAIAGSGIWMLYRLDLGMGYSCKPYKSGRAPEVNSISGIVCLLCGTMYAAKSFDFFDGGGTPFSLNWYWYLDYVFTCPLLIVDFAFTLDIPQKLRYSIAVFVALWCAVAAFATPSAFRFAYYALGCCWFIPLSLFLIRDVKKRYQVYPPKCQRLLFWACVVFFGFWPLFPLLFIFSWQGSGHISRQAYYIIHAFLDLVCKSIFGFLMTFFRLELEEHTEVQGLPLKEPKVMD

[3] = biological target: HcKCR1 WT (K+-selective channelrhodopsin 1 from Hyphochytrium catenoides) (Hyphochytrium catenoides); assay: cryo-EM structure; dark state; protein in MSP1E3D1/SoyPC nanodiscs, 20 mM HEPES-NaOH pH 7.5, 100 mM NaCl; C3 symmetry

stoichiometry N [1]: 3
Compound: HcKCR2 WT (K+-selective channelrhodopsin 2 from Hyphochytrium catenoides) (domain or fragment)

Compound: CC1=C(/C=C/C(C)=C/C=C/C(C)=C/C=O)C(C)(C)CCC1 [all-trans-retinal]
cryo-EM structure [2]: HcKCR2 thus represents the initial naturally occurring microbial rhodopsin with experimentally demonstrated 6-s-cis-retinal configuration

stoichiometry N [3]: 3
Compound: HcKCR1 WT (K+-selective channelrhodopsin 1 from Hyphochytrium catenoides) (domain or fragment)

Source: paper PMC7615185, “Structural basis for ion selectivity in potassium-selective channelrhodopsins” (Cell, 2023)
